Data published in article PMC12615798.

Molecular target: cystatin C^EX (human) (UniProt P01034)
Assay: ELISA; two-fold serial dilutions of cystatin C^EX coated on the plate overnight at 4 °C, 10 μg/mL ECD-Fc added for 2 h at room temperature, anti-human-IgG-Fc-HRP

Sequence of UniProt P01034 (P01034 27-146): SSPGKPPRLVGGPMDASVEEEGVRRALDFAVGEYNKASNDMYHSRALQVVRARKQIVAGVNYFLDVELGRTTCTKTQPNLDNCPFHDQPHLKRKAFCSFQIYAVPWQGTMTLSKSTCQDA

EC50 [nM]	Substance
22.8	LILRB2 ECD-Fc (commercial) (from UniProt Q8N423 22-460) (Fc fusion)
1180	LILRB5 ECD-Fc (commercial) (from UniProt O75023 24-458) (Fc fusion)
